The values that follow come from patent publication US20090208491A1 (published 2009).

Residue numbers refer to the chain shown, from its start.

As usually defined, the Kd is a measure of binding affinity in units of concentration.

The target of assay [1] is Notch1 antigen protein (amino acids 1-220 of human Notch1 with human Fc-tag or histidine-tag) (human) (UniProt P46531). Kind of assay: Biacore, binding to Notch1 antigen. In general terms: SPR reads the build-up and loss of mass on a sensor chip optically.
The target in assay [2] is T1, Notch1 antigen protein (amino acids 1-220 of human Notch1 with human Fc-tag or histidine-tag) (human, UniProt P46531 19-220).
T1 construct: range 19-220; Made in insect cells with baculovirus; also called Notch1 antigen corresponding to EGF repeats 1-5; not shown: C-terminal human Fc-tag or histidine-tag
T1 sequence (looked up): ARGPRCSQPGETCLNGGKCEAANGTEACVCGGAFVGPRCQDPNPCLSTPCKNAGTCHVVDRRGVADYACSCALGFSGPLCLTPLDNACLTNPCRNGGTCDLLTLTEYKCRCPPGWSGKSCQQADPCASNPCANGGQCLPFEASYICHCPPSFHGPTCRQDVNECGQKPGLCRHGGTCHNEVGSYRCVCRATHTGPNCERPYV
Kind of assay: ELISA of HEK 293 conditioned media on Notch1 antigen; heavy chain cotransfected with the murine 13M57 light chain. As to the method:
The functionality of each candidate variant humanized heavy and light chain was tested by cotransfection into mammalian cells. Each of the eleven candidate humanized 13M57 heavy chains described above was cotransfected with the murine 13M57 light chain cDNA into HEK 293 cells, and conditioned media was then assayed for Notch1 antigen binding activity by ELISA. […] This variant—“13M57H5”—contained, in additional to murine CDRs, murine residues at five framework positions, Kabat positions 44, 46, 49, 89, and 93 (FIG. 3). The 13M57H5 humanized heavy chain was then cotransfected with each of the eleven candidate humanized light chains into HEK293 cells, and conditioned media was again assayed for antigen binding by ELISA. […] To evaluate the importance of the individual murine residues in 13M57 L5 and 13M57 L6, a farther series of candidate variant light chains were synthesized that combined one or more of the murine residues at Kabat positions 42-45 and 89-90. These candidate variant light chains were then tested as described above.

Assay [3] addresses T1, Notch1 antigen protein (amino acids …). The assay is described as follows: Biacore, binding to Notch1 antigen. The source says:
The two best humanized 13M57 antibodies (13M57H5 L6 and 13M57H5 L21) were then further characterized. The humanized 13M57 antibodies were purified using protein A chromatography.

B1: murine monoclonal antibody 13M57 (antibody, from another filing, V domains shown)
VH: EVNLVESGGDLVQPGGSLRLSCAASGFTFSSYTMSWVRQTPEKRLEWVAYIDYGGDFTSYSDAIRGRFTISRDNAKNTLYLQMSSLKSEDTAIYYCSRRRYDAMDYWGQGTSVIVSS
VL: DIQMTQSTSSLSASLGDRVTVSCSASQAISNYLNWYQQKPDGTLKLLIYYTTNLHSGVPSRFSGSGSGTDYSLTISNLEPEDIATYYCQQYSKFPWTFGGGTKLEIKR
As for B1, the Kd in assay [1] was found to be 0.05 nM.

B2: 13M57H5 humanized heavy chain cotransfected with the murine 13M57 light chain (antibody, human IgG2, V domains shown)
VH: B1 VH with N3Q, D10G, T40A, E42G, S84N, K87R, S88A, S112L, I114T
VL: DIQMTQSTSSLSASLGDRVTVSCSASQAISNYLNWYQQKPDGTLKLLIYYTTNLHSGVPSRFSGSGSGTDYSLTISNLEPEDIATYYCQQYSKFPWTFGGGTKLEIK
notes: Heavy chain fused to the human IgG2 constant region; tested as conditioned medium from HEK 293 cells
Consider B2, for which the binding result in assay [2] is on record as “binds”.

B3: humanized 13M57H5L6 antibody (antibody, human IgG2, V domains shown)
VH: B1 VH with N3Q, D10G, T40A, E42G, S84N, K87R, S88A, S112L, I114T
VL: DIQMTQSPSSLSASVGDRVTITCSASQAISNYLNWYQQKPGKAPKLLIYYTTNLHSGVPSRFSGSGSGTDYSFTISSLQPEDIATYYCQQYSKFPWTFGGGTKVEIKR
notes: Variant heavy chains were fused in-frame to the human IgG2 constant region; also called 13M57 L6H5; humanized L6H5 13M57
On to B3, for which the Kd in assay [3] is about 0.08 nM.

B4: humanized 13M57H5L21 antibody (antibody, human IgG2, V domains shown)
VH: B1 VH with N3Q, D10G, T40A, E42G, S84N, K87R, S88A, S112L, I114T
VL: B3 VL with G41D, K42G, A43T, P44L
notes: Human IgG2 heavy chain constant region; also called 13M57 L21H5; ATCC PTA-8424
For the molecule B4, in assay [3], the Kd was about 0.1 nM.
